From patent US20090069241A1, “Compositions and Methods for Use of Pigment Epithelial Derived Factor (PEDF) Peptide Fragments” (Yale University, priority 2006, published 2009)

Experiments:
Erk = test: Western blot of phosphorylated Erk in retinas after ischemic injury; format: in vivo, C57/B16 mice; details: 48 hours after ischemic injury; control retinas: not detected at 48 hours
Description: (§1) Induction of transient retinal ischemia in C57/B16 mice: Animal experiments were conducted in accordance with ARVO guidelines and were approved by the Animal Care and Use Committee of Yale University School of Medicine. Transient retinal ischemia was induced in one eye and the contralateral eye served as control. During the operation and recovery period, animals were placed on water heating pads at 37° C. Eighty-one 10-14 weeks male C57/B16 mice (Charles River Laboratories, Wilmington, Mass., weighing […]) were used in this experiment. To induce retinal ischemia, a previously established technique with some modifications was used (Hughes, 1991, Exp Eye Res. 53(5):573-582; Buchi et al., 1991, Opthalmologica 203 (3): 138-147). Briefly, animals were anesthetized by i.p. injection of a mixture of 100 mg/kg Ketamine+10 mg/kg Xylazine. […]
(§2) The effect of PEDF82-121 on STAT3 and Erk after ischemic injury was examined by Western blot. In control retinas subjected to ischemic injury, phosphorylated STAT3 was detected at 24 hours but not at 1 hour, 4 hours, 12 hours or 48 hours after ischemic injury. […] In control retinas, phosphorylated Erk was detect strongly at 4 hours and 12 hours after ischemic injury but was barely detectable at 24 hours and not detected at 48 hours. […]

[1] = tested on: inner retina (INL, IPL, retinal ganglion cell layer); test: Transient retinal ischemia-reperfusion injury with intravitreous injection; morphometric analysis of inner retina; format: in vivo, C57/B16 mice; design: thickness of the INL compared with non-ischemia control / thickness of the IPL compared with non-ischemia control / surviving cells in the RGC layer compared with non-ischemia control: concentration or dose not given beside the values; details: for surviving cells in the RGC layer compared with non-ischemia control / thickness of the INL compared with non-ischemia control / thickness of the IPL compared with non-ischemia control: single intravitreous injection immediately after ischemia; for IPL thickness after ischemic injury (in words): compared to PBS injected controls, time not stated
Description: Induction of transient retinal ischemia in C57/B16 mice: Animal experiments were conducted in accordance with ARVO guidelines and were approved by the Animal Care and Use Committee of Yale University School of Medicine. Transient retinal ischemia was induced in one eye and the contralateral eye served as control. During the operation and recovery period, animals were placed on water heating pads at 37° C. […] Briefly, animals were anesthetized by i.p. injection of a mixture of 100 mg/kg Ketamine+10 mg/kg Xylazine. […] The anterior chambers were cannulated in fully anesthetized animals with a 30-gauge infusion needle connected by PE10 polyethylene tubing and IV set to a physiological saline reservoir. The intraocular pressure (IOP) of the cannulated eye was raised to 120 mmHg for 60 minutes by elevating the saline reservoir. Retinal ischemia was confirmed by direct microscopic observation of whitening of the fundus. The reperfusion was confirmed visually when needle was withdrawn from the anterior chamber. One group of animals was treated with Vetropolycin® ophthalmic ointment (Pharmaderm, Melville, N. Y.) on the ischemic eyes and allowed to recover for 24 hours, 48 hours, 7 days and 14 days before sacrifice. Other groups were kept for intravitreous injections of the PEDF and PEDF peptides.
Intravitreous injection of PEDF, PEDF peptides and encapsulated PEDF peptide: One group of animals remained uninjected to monitor ischemic damage. All other groups received intravitreal injections, which were performed under an ophthalmic microscope. […] Intravitreous injection was performed with 30-gauge beveled needle attached to PE10 polyethylene tubing and a 10 μl syringe (Hamilton, Reno, Nev.). The injections were performed through the sclera, approximately 1 mm behind the limbus. The needle remained in the vitreous cavity for 30 seconds after injection then gently withdrawn. Control groups were injected with 1 μl PBS, 1 μl control peptide (1 μg/μl), or blank nanospheres (0.1 mg/μl). […] Vetropolycin® ointment was applied to the injected eyes and animals were allowed to recover for 48 hours or 7 days before sacrifice.
Preparation of retinal tissue: at designated time points, mice were sacrificed by carbon dioxide inhalation followed by, in some cases, cervical dislocation. The eyes were enucleated, fixed in 4% paraformaldehyde for 24 hours, washed with PBS and embedded in paraffin. Five (5) μm thick sections that included the optic nerve were collected. Sections were processed for TUNEL, immunocytochemistry, or histochemical staining with hematoxylin and eosin (Surgipath, Ltd, Richmond, Ill.) using standard methods.
Morphologic and Morphometric Analysis: For each eye, three sections, which included the optic disk and were spaced at least 20 μm apart, were used for morphological analysis. The fields analyzed were 4×250 μm zones sampled from all retinal eccentricities. These zones were 500 μm away from the edge of optic disk or the ora serrata. The average measurement of these 4 zones was used for statistical analysis. The mean thickness of inner nuclear layer (INL) and inner plexiform layer (IPL) was measured using Axiovision3.1 software (Carl Zeiss MicroImaging, Inc., Thornwood, N.Y.). Total surviving cells in the retinal ganglion cell layer at the same locations were counted using light microscopy.
Statistical analysis: Twelve fields per retina were analyzed for each treatment, and a total of 72 fields were used. For statistical analysis, one-way analysis of variance (ANOVA) and Fisher tests were performed; p<0.05 was taken as significant. Data are presented as means and standard deviations.

GFAP = GFAP immunocytochemical labeling of Müller glial cells after transient ischemia; format: in vivo, C57/B16 mice; details: for GFAP labeling compared to PBS injections: 48 hours after transient ischemia; for GFAP staining: 7 days after injury
Description: Induction of transient retinal ischemia in C57/B16 mice: Animal experiments were conducted in accordance with ARVO guidelines and were approved by the Animal Care and Use Committee of Yale University School of Medicine. Transient retinal ischemia was induced in one eye and the contralateral eye served as control. During the operation and recovery period, animals were placed on water heating pads at 37° C. Eighty-one 10-14 weeks male C57/B16 mice (Charles River Laboratories, Wilmington, Mass., weighing […]) were used in this experiment. To induce retinal ischemia, a previously established technique with some modifications was used (Hughes, 1991, Exp Eye Res. 53(5):573-582; Buchi et al., 1991, Opthalmologica 203 (3): 138-147). Briefly, animals were anesthetized by i.p. injection of a mixture of 100 mg/kg Ketamine+10 mg/kg Xylazine. The corneas were topically anesthetized with 0.5% proparacaine hydrochloride (Bausch & Lomb Pharmaceuticals, Inc., Tampa, Fla.), and the pupils dilated with 2.5% phenylephrine (Bausch & Lomb Pharmaceuticals, Inc., Tampa, Fla.). The anterior chambers were cannulated in fully anesthetized animals with a 30-gauge infusion needle connected by PE10 polyethylene tubing and IV set to a physiological saline reservoir. The intraocular pressure (IOP) of the cannulated eye was raised to 120 mmHg for 60 minutes by elevating the saline reservoir. Retinal ischemia was confirmed by direct microscopic observation of whitening of the fundus. The reperfusion was confirmed visually when needle was withdrawn from the anterior chamber. One group of animals was treated with Vetropolycin® ophthalmic ointment (Pharmaderm, Melville, N. Y.) on the ischemic eyes and allowed to recover for 24 hours, 48 hours, 7 days and 14 days before sacrifice. Other groups were kept for intravitreous injections of the PEDF and PEDF peptides.
Intravitreous injection of PEDF, PEDF peptides and encapsulated PEDF peptide: One group of animals remained uninjected to monitor ischemic damage. All other groups received intravitreal injections, which were performed under an ophthalmic microscope. Experimental groups received 1 μl native PEDF protein (1 μg/μl), PEDF82-121 peptide (1 μg/μl), PEDF76-95 peptide (1 μg/μl), PEDF91-110 peptide (1 μg/μl), PEDF106-125 peptide (1 μg/μl) or PLGA PEDF82-121 nanospheres (0.1 mg/μl, less than 1.6 μg PEDF82-121 peptide when fully released) immediately after the end of the transient ischemia. Intravitreous injection was performed with 30-gauge beveled needle attached to PE10 polyethylene tubing and a 10 μl syringe (Hamilton, Reno, Nev.). The injections were performed through the sclera, approximately 1 mm behind the limbus. The needle remained in the vitreous cavity for 30 seconds after injection then gently withdrawn. […]

STAT3 = test: Western blot of phosphorylated STAT3 in retinas after ischemic injury; format: in vivo, C57/B16 mice; details: 48 hours after ischemic injury; control retinas: detected only at 24 hours
Description: as §1, §2

VEGFR1 = VEGFR1 (Homo sapiens, UniProt P17948); test: VEGFR1 binding; details: compared to PEDF purified from human plasma or recombinant non-modified human PEDF
VEGFR2 = VEGFR2 (Homo sapiens, UniProt P35968); test: Block of VEGFR2 phosphorylation; details: compared to recombinant, non-modified human PEDF
VEGF = test: Block of VEGF mitogenic signaling; details: compared to recombinant, non-modified human PEDF
[2] = target: VEGF receptor KDR (VEGFR2) (Homo sapiens, UniProt P35968); test: ELISA binding to VEGF receptor KDR
[3] = 48 hours after ischemia reperfusion
[4] = 48 hours post ischemia, versus PBS or PEDF136-155
[5] = 7 days post ischemia, free single bolus or nanospheres

Chain of VEGFR1 (P17948 27-1338, species assumed): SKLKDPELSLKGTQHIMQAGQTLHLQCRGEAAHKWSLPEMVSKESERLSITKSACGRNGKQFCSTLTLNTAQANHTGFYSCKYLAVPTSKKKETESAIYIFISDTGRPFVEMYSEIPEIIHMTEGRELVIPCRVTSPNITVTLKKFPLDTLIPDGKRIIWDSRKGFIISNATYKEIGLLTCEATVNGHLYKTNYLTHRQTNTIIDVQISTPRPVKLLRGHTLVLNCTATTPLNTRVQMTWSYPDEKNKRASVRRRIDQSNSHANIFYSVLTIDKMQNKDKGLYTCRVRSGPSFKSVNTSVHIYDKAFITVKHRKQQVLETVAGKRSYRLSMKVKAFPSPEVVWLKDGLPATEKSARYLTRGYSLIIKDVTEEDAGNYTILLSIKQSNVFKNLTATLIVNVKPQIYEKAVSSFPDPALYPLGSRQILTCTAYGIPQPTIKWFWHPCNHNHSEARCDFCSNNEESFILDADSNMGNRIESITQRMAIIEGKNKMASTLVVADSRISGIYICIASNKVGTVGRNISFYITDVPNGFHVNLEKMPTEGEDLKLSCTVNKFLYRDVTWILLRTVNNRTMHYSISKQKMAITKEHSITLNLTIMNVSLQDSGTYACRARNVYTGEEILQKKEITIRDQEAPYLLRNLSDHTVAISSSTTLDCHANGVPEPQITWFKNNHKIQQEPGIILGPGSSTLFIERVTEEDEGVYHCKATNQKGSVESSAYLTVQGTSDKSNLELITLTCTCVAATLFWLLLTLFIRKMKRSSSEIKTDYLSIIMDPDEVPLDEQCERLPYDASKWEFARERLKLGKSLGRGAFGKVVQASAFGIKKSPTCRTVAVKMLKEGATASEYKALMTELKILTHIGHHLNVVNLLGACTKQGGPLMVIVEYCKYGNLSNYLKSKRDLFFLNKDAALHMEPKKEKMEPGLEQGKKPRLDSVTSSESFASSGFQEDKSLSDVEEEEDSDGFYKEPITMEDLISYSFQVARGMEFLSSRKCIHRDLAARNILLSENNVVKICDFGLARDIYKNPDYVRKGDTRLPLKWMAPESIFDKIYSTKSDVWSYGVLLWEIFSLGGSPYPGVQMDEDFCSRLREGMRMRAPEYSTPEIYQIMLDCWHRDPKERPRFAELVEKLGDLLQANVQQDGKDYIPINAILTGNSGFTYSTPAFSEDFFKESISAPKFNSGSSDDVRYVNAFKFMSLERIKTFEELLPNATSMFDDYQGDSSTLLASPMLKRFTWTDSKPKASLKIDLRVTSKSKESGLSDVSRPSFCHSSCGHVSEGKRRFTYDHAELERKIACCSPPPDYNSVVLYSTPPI
Chain of VEGF receptor KDR (VEGFR2) (P35968 20-1356, species assumed): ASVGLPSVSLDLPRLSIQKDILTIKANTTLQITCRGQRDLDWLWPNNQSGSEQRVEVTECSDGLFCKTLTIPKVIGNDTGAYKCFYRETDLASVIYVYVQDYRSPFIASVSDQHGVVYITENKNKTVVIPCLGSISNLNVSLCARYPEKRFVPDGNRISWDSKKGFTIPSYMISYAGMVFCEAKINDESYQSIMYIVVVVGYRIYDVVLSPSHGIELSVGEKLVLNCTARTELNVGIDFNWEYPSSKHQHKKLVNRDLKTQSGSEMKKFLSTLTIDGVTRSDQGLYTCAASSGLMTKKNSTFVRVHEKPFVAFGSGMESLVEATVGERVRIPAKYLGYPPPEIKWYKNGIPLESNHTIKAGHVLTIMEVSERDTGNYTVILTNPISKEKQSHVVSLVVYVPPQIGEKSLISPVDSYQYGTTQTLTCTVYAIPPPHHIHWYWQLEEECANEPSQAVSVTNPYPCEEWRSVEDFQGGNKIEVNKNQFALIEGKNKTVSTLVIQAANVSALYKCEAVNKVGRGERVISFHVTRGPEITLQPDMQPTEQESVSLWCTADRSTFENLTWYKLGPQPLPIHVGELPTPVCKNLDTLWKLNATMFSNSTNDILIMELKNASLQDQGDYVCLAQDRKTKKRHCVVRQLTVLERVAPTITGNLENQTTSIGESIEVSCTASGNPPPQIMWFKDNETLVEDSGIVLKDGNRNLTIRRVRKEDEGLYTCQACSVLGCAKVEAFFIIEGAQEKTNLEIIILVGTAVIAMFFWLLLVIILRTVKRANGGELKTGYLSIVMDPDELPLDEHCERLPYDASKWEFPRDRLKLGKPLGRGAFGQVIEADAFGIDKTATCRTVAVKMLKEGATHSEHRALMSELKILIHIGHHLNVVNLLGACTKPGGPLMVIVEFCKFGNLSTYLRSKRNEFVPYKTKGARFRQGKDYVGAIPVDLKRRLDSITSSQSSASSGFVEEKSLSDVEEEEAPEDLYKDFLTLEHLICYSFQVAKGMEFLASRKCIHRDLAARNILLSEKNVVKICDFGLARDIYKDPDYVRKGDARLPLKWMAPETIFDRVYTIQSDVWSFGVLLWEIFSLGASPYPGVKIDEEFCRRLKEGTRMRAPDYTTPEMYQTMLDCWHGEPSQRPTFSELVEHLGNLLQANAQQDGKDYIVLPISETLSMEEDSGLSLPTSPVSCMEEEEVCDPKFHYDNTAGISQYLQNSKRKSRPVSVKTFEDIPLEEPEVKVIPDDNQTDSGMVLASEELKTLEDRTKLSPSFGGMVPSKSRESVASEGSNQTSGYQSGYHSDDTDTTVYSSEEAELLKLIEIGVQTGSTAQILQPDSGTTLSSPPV
Chain of VEGFR2 (P35968 20-1356, species assumed): as above

Row | Molecule | presence of phosphorylated Erk (Erk) | surviving cells in the RGC layer compared with non-ischemia control [1, 3] [%] | thickness of the INL compared with non-ischemia control [1, 3] [%] | thickness of the IPL compared with non-ischemia control [1, 3] [%] | protection of the retinal ganglion cell layer (in words) [1, 4] | surviving cells in the RGC layer compared with non-ischemia control ([1]; 7 days after injury) [%] | thickness of the INL compared with non-ischemia control ([1]; 7 days after injury) [%] | thickness of the IPL compared with non-ischemia control ([1]; 7 days after injury) [%] | protection of the retinal ganglion cell layer (in words) [1, 5] | IPL thickness after ischemic injury (in words) [1] | GFAP labeling compared to PBS injections (GFAP) | GFAP staining (GFAP) | presence of phosphorylated STAT3 (STAT3) | VEGFR1 binding (VEGFR1) | block of VEGFR2 phosphorylation (VEGFR2) | block of VEGF mitogenic signaling (VEGF) | binding to VEGF receptor KDR (VEGFR2) [2]
1 | PEDF82-121: residues 82 to 121 of human PEDF, PLSVATALSALSLGAEQRTESIIHRALYYDLISSPDIHGT (SEQ ID NO: 3) ((1)..(40) Residues 82-121 of human PEDF; listed as Homo sapiens) | strongly detected at 48 hours | 80.1 | 100 | 100 | substantial protection | 56.8 | 72.8 | 62.7 | less | maintained the thickness of the IPL | less GFAP labeling | very similar staining | also detected at 48 hours | – | – | – | –
2 | PEDF protein: full length pigment epithelium-derived factor, a 50 kD protein of the serpin family (protein, listed as Homo sapiens) MQALVLLLCIGALLGHSSCQNPASPPEEGSPDPDSTGALVEEEDPFFKVPVNKLAAAVSNFGYDLYRVRSSMSPTTNVLLSPLSVATALSALSLGADERTESIIHRALYYDLISSPDIHGTYKELLDTVTAPQKNLKSASRIVFEKKLRIKSSFVAPLEKSYGTRPRVLTGNPRLDLQEINNWVQAQMKGKLARSTKEIPDEISILLLGVAHFKGQWVTKFDSRKTSLEDFYLDEERTVRVPMMSDPKAVLRYGLDSDLSCKIAQLPLTGSMSIIFFLPLKVTQNLTLIEESLTSEFIHDIDRELKTVQAVLTVPKLKLSYEGEVTKSLQEMKLQSLFDSPDFSKITGKPIKLTQVEHRAGFEWNEDGAGTTPSPGLQPAHLTFPLDYHLNQPFIFVLRDTDTGALLFIGKILDPRGP | – | 85.4 | 100 | 86.6 | significantly reduced cell death | 87.4 | 82.5 | 78.2 | significantly reduced cell death | prevented the thinning of the IPL | less GFAP labeling | very similar staining | – | – | – | – | –
3 | coPEDF: bacterially expressed codon-optimized fusion protein: thioredoxin, His6 tag, thrombin site and S-Tag fused N-terminally to human PEDF (protein, left off: large carriers; small tags and cut ends, bacterially expressed codon-optimized fusion protein: thioredoxin, His6 tag, thrombin site and S-Tag fused N-terminally to human PEDF) QNPASPPEEGSPDPDSTGALVEEEDPFFKVPVNKLAAAVSNFGYDLYRVRSSMSPTTNVLLSPLSVATALSALSLGADERTESIIHRALYYDLISSPDIHGTYKELLDTVTAPQKNLKSASRIVFEKKLRIKSSFVAPLEKSYGTRPRVLTGNPRLDLQEINNWVQAQMKGKLARSTKEIPDEISILLLGVAHFKGQWVTKFDSRKTSLEDFYLDEERTVRVPMMSDPKAVLRYGLDSDLSCKIAQLPLTGSMSIIFFLPLKVTQNLTLIEESLTSEFIHDIDRELKTVQAVLTVPKLKLSYEGEVTKSLQEMKLQSLFDSPDFSKITGKPIKLTQVEHRAGFEWNEDGAGTTPSPGLQPAHLTFPLDYHLNQPFIFVLRDTDTGALLFIGKILDPRGP | – | – | – | – | – | – | – | – | – | – | – | – | – | increased VEGFR1 binding | greater effect | greater effect | improves binding
